Results as given in publication doi:10.1101/2022.07.31.502239, “Structural basis for assembly and lipid-mediated gating of LRRC8A:C volume-regulated anion channels” (bioRxiv, 2022).

Biological target: the molecule itself
Assay: single molecule pulldown with stepwise photobleaching subunit counting; C-terminal EGFP-HA fusion expressed alone in LRRC8 knockout HEK293 cells, GDN extract used directly, immobilised on passivated coverslips with biotinylated anti-HA, TIRF imaging of EGFP bleaching steps

B1: HVCN1 with C-terminal EGFP and HA-tag (natural protein, UniProt Q96D96 1-273, looked up)
chain: MATWDEKAVTRRAKVAPAERMSKFLRHFTVVGDDYHAWNINYKKWENEEEEEEEEQPPPTPVSGEEGRAAAPDVAPAPGPAPRAPLDFRGMLRKLFSSHRFQVIIICLVVLDALLVLAELILDLKIIQPDKNNYAAMVFHYMSITILVFFMMEIIFKLFVFRLEFFHHKFEILDAVVVVVSFILDIVLLFQEHQFEALGLLILLRLWRVARIINGIIISVKTRSERQLLRLKQMNVQLAAKIQHLEFSCSEKEQEIERLNKLLRQHGLLGEVN
notes: HVCN1 (HV1) voltage-gated proton channel; Control for subunit counting; also called HV1-EGFP; HV1; source: LRRC8 knockout HEK293 cells, transfected, GDN detergent extract of membranes; not shown: EGFP, C-terminal, kept; HA, C-terminal, kept
- stoichiometry N: 2
